Laboratory results taken from PMC6237851, “A tumor-targeted trimeric 4-1BB-agonistic antibody induces potent anti-tumor immunity without systemic toxicity” (Nature Communications, 2018).

Biological target: the molecule itself
Assay: SDS-PAGE, reducing against non-reducing; m4-1BBL alone; about 40 kDa in reducing and about 70 kDa in non-reducing conditions (Supplementary Figure 3a)

B1: recombinant soluble mouse 4-1BBL (ligand, UniProt P41274 104-309, looked up)
chain: RTEPRPALTITTSPNLGTRENNADQVTPVSHIGCPNTTQQGSPVFAKLLAKNQASLCNTTLNWHSQDGAGSSYLSQGLRYEEDKKELVVDSPGLYYVFLELKLSPTFTNTGHKVQGWVSLVLQAKPQVDDFDNLALTVELFPCSMENKLVDRSWSQLLLLKAGHRLSVGLRAYLHGAQDAYRDWELSYPNTTSFGLFLVKPDNPWE
notes: 4-1BB ligand (4-1BBL, TNFSF9), mouse, recombinant soluble form; For the RICS imaging it was labelled with CF488A (Mix-n-Stain kit); also called m4-1BBL; 4-1BB-Ligand; source: bought: Biolegend (cat#754402)
stoichiometry N: 3
